Results taken from patent US20250262210A1 (TRUSTEES OF COLUMBIA UNIVERSITY IN THE CITY OF NEW YORK, published 2025).

How the values were obtained:
Experiment in all cases: IP/MS, LZTR1 wild type-FLAG, U87
TRIM16 = TRIM16 (human, UniProt O95361 1-564, limits assumed)
Summary of the method: (§1)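 Read-out: spectral counts from LC-MS/MS (Orbitrap Fusion) after MaxQuant identification. Variable modifications were Met oxidation, protein N-terminal acetylation and N/Q deamidation.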

RPAP1 = target: T1, RPAP1 (human, UniProt Q9BWH6 1-1393, limits assumed)
T1 sequence (looked up): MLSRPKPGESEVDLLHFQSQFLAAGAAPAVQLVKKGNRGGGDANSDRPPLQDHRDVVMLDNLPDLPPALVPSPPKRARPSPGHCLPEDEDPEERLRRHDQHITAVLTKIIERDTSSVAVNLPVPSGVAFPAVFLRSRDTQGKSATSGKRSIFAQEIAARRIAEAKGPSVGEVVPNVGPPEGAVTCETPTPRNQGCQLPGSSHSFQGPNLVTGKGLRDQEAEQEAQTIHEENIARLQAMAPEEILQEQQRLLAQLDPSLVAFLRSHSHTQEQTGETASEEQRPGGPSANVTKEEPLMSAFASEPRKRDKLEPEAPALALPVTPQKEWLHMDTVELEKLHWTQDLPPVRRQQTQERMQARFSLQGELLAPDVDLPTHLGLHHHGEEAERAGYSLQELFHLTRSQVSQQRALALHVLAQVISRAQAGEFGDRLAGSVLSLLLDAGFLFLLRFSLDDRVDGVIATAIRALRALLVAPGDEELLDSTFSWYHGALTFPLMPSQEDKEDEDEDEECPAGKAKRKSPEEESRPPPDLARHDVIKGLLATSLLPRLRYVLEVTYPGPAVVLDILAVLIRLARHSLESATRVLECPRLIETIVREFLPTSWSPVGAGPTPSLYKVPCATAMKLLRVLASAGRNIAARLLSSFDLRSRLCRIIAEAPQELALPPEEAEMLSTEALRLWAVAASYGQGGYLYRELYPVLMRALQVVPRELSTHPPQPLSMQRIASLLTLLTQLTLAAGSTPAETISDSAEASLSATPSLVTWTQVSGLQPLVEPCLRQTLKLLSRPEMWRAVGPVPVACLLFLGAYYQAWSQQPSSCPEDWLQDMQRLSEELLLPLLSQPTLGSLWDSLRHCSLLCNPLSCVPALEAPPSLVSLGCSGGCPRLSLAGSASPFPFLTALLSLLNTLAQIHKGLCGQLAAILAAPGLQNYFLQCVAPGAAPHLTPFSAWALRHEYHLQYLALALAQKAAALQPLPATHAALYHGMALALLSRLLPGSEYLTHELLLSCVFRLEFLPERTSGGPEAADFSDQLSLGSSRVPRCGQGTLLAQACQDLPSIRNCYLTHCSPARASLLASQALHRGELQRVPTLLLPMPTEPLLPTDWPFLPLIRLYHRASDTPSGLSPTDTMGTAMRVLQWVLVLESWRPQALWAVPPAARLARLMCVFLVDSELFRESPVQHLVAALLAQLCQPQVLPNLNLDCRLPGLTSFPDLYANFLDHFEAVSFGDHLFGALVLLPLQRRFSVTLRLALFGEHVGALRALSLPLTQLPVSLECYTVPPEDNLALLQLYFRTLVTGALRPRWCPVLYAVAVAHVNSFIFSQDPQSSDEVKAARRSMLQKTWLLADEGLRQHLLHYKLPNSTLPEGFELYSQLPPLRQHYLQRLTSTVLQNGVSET
Summary of the method: as §1

MOCOS = target: T2, MOCOS (human, UniProt Q96EN8 1-888)
T2 sequence (looked up): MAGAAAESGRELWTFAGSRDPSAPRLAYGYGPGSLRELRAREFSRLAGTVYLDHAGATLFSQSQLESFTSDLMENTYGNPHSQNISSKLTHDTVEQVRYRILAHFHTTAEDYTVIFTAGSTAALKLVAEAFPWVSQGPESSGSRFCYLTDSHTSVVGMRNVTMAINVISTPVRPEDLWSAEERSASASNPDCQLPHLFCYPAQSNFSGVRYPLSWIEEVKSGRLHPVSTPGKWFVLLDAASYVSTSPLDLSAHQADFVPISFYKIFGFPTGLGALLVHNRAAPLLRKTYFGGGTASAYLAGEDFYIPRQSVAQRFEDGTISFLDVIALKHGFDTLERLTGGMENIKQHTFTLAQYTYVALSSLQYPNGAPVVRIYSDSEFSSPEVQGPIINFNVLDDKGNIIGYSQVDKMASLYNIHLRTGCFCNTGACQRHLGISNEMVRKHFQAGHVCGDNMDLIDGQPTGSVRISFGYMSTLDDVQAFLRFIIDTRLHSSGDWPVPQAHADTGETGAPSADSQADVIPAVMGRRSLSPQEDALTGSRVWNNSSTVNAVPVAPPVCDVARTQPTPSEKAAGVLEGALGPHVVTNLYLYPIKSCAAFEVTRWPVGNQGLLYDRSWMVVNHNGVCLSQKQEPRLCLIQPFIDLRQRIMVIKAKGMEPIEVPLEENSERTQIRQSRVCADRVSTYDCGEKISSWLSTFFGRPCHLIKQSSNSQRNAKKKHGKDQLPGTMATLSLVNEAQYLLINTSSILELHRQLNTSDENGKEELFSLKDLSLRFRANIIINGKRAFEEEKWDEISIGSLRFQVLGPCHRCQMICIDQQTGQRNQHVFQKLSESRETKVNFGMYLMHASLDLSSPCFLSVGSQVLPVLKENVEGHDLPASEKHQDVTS
Summary of the method: as §1

- binding result (TRIM16): binds
- binding result (RPAP1): binds
- binding result (MOCOS): binds
B1: LZTR1-FLAG (other, human, UniProt Q8N653 1-840, looked up)
chain: MAGPGSTGGQIGAAALAGGARSKVAPSVDFDHSCSDSVEYLTLNFGPFETVHRWRRLPPCDEFVGARRSKHTVVAYKDAIYVFGGDNGKTMLNDLLRFDVKDCSWCRAFTTGTPPAPRYHHSAVVYGSSMFVFGGYTGDIYSNSNLKNKNDLFEYKFATGQWTEWKIEGRLPVARSAHGATVYSDKLWIFAGYDGNARLNDMWTIGLQDRELTCWEEVAQSGEIPPSCCNFPVAVCRDKMFVFSGQSGAKITNNLFQFEFKDKTWTRIPTEHLLRGSPPPPQRRYGHTMVAFDRHLYVFGGAADNTLPNELHCYDVDFQTWEVVQPSSDSEVGGAEVPERACASEEVPTLTYEERVGFKKSRDVFGLDFGTTSAKQPTQPASELPSGRLFHAAAVISDAMYIFGGTVDNNIRSGEMYRFQFSCYPKCTLHEDYGRLWESRQFCDVEFVLGEKEECVQGHVAIVTARSRWLRRKITQARERLAQKLEQEAAPVPREAPGVAAGGARPPLLHVAIREAEARPFEVLMQFLYTDKIKYPRKGHVEDVLLIMDVYKLALSFQLCRLEQLCRQYIEASVDLQNVLVVCESAARLQLSQLKEHCLNFVVKESHFNQVIMMKEFERLSSPLIVEIVRRKQQPPPRTPLDQPVDIGTSLIQDMKAYLEGAGAEFCDITLLLDGHPRPAHKAILAARSSYFEAMFRSFMPEDGQVNISIGEMVPSRQAFESMLRYIYYGEVNMPPEDSLYLFAAPYYYGFYNNRLQAYCKQNLEMNVTVQNVLQILEAADKTQALDMKRHCLHIIVHQFTKVSKLPTLRSLSQQLLLDIIDSLASHISDKQCAELGADI
notes: Expressed in HEK 293T, HeLa or U87 cells; used as cell lysate; also called LZTR1 wild type-FLAG; LZTR1 WT; not shown: FLAG tag at the C-terminus
